Measurements: patent US20200216522A1 (DENALI THERAPEUTICS, published 2020)
Substitutions are numbered along the chain they refer to. * marks the point of attachment. Biotin = O=C1N[C@H]2[C@H](CS[C@H]2CCCCC(=O)*)N1

B1: murine anti-Tau hybridoma antibody 17G2.A1 (antibody, V domains shown)
VH: QVQLQQPGAELVGPGSSVKLSCKASGYTFINYWIDWMKQSPGQGLEWIGNIYPSDSESHYNQKFTDKATLTVDISSSTAYLQLSSLTSEDSAVYYCALYSKGYWGQGTSVTVSS
VL: DVLMTQTPLSLPVTLGDQASISCRSSQNIVHTNGNTYLEWYLQKPGQSPKLLIYKLSSRFSGVPDRFSGSGSGTDFTLKISRVEAEDLGVYYCFQGSHLPFTFGGGTKLEIKR
notes: mouse IgG from hybridoma; also called anti-Tau 17G2.A1
B2: chimeric IgG clone 1A5 (antibody, V domains shown)
VH: EVQLQQSGAELVRPGASVKLSCTASGFNIKDSLIHWVKQRPEQGLEWIGWIDPEDGETKYAPKFQDKATKTADTSSNTAYLQLSSLTSEDTAIYYCASGEWDYWGQGTSVTVSS
VL: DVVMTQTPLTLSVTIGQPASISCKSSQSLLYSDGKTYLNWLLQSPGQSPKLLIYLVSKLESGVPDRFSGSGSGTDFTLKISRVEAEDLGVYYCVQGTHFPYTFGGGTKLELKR
notes: mouse-human chimeric IgG from HEK293
B3: chimeric IgG clone 1A1 (antibody, V domains shown)
VH: EVQLQQSGAELVRPGASVRLSCTASGFNIKDSLMHWLKQRPEQGLEWIGWIDPEDGETKYAPKFQDKATITADTSSNTAYLQLSSLTSEDTAIYYCTRRDWEGPWGQGTLVTVSA
VL: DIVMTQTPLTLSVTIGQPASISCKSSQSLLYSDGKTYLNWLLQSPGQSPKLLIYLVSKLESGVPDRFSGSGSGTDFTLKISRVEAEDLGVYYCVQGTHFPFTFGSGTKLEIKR
notes: mouse-human chimeric IgG from HEK293; also called anti-Tau 1A1; anti-Tau^1A1
B4: chimeric IgG clone 1G7 (antibody, V domains shown)
VH: B3 VH with L11V, R19K, A24T, E89G, T97A
VL: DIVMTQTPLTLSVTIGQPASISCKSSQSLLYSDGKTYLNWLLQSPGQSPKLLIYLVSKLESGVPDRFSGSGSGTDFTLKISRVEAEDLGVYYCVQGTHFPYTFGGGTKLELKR
notes: as for B2
B5: chimeric IgG clone 1D10 (antibody, V domains shown)
VH: EVQLQQSGAELVRPGASVKLSCTASGFNIKDSLMHWMKQRPEQGLEWIGWIDPEDGETKYAPKFQDKATLTADTSSNAAYLQLSSLTSEDTAIYYCVRGDWDGGYWGQGTTLTVSS
VL: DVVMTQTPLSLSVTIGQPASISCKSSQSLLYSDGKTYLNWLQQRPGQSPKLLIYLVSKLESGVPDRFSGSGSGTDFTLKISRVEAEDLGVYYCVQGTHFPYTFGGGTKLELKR
notes: as for B2

How the values were obtained:
[1] = molecular target: T1, Peptide_025 (human); experiment: peptide array
T1 peptide: HVTQARMVSKSKDGT
Experimental: (§1) Chimeric IgG antibodies were diluted to a concentration of 5 μg/mL in 3% bovine serum albumin in Tris-buffered saline (10 mM Tris, pH 7.5, 150 mM NaCl) supplemented with 0.05% Tween®20 (3% BSA-TBST). Diluted antibodies were allowed to bind to peptides printed onto slides for 2 hours at room temperature as described in the PepStar™ user manual (JPT Technologies). Following extensive washing (5×5 minutes with TBST), slides were incubated with secondary antibodies goat anti-human IgG, Alexa Fluor 568 conjugate, 1 μg/mL in 3% BSA-TBST) for 1 hour at room temperature. After extensive washing, (5×5 minutes with TBST, then 5×5 minutes with ultrapure water), slides were dried overnight and imaged using an Opera Phenix™ system in the 568 nm channel. Images were aligned to peptide array definition files using Galviewer software obtained from JPT Technologies and ImageJ software with control human IgG serving as landmarks.
(§2) Full-length human Tau (encoded by the microtubule-associated protein Tau isoform 2 gene (MAPT), amino acid sequence NCBI Reference Sequence No. NP_005901.2, SEQ ID NO: 1, variant designation “2N4R”) was divided into 15 amino acid peptides, offset by 5 amino acids (overlapping by 10 amino acids). Peptides were synthesized and covalently attached to silica slides in triplicate with a spot size of 0.5 mm (obtained from JPT Technologies, Berlin, Germany). Antibodies muIgG were diluted to a concentration of 30 μg/mL in 3% bovine serum albumin in Tris-buffered saline (10 mM Tris, pH 7.5, 150 mM NaCl) supplemented with 0.05% Tween® 20 (3% BSA-TBST). Diluted antibodies were allowed to bind to peptides printed onto slides for 2 hours at room temperature as described in the Pepstar™ user manual (JPT Technologies). Following extensive washing (5×5 min TBST), slides were incubated with secondary antibodies (donkey anti-mouse IgG, Alexafluor 647 conjugate, 5 μg/mL in 3% BSA-TBST) for 1 hour at room temperature. After extensive washing, (5×5 minutes TBST, 5×5 minutes ultrapure water), slides were dried under a stream of nitrogen and imaged on the Opera Phenix in the 647 nm channel. Images were aligned to peptide array definition file using Galviewer software obtained from JPT Technologies and ImageJ software with control mouse IgG serving as landmarks.

[2] = molecular target: T2, Peptide_007 (human); experiment: peptide array
T2 peptide: MHQDQEGDTDAGLKE
Experimental: as §1, §2

[3] = molecular target: T3, Peptide_031 (human); experiment: peptide array
T3 peptide: IATPRGAAPPGQKGQ
Experimental: as §1, §2

[4] = molecular target: T4, Peptide_086 (human); experiment: peptide array
T4 peptide: ATLADEVSASLAKQG
Experimental: as §1, §2

[5] = molecular target: T5, Peptide_058 (human); experiment: peptide array
T5 peptide: NVQSKCGSKDNIKHV
Experimental: as §1, §2

[6] = molecular target: T6, Peptide_035 (human); experiment: peptide array
T6 peptide: IPAKTPPAPKTPPSS
Experimental: as §1, §2

[7] = molecular target: T7, Peptide_016 (human); experiment: peptide array
T7 peptide: TAPLVDEGAPGKQAA
Experimental: as §1, §2

[8] = molecular target: T8, Peptide_066 (human); experiment: peptide array
T8 peptide: GNIHHKPGGGQVEVK
Experimental: as §1, §2

[9] = molecular target: T9, Peptide_073 (human); experiment: peptide array
T9 peptide: THVPGGGNKKIETHK
Experimental: as §1, §2

[10] = molecular target: T10, Peptide_065 (human); experiment: peptide array
T10 peptide: KCGSLGNIHHKPGGG
Experimental: as §1, §2

[11] = molecular target: T11, Peptide_069 (human); experiment: peptide array
T11 peptide: SEKLDFKDRVQSKIG
Experimental: as §1, §2

[12] = molecular target: T12, Peptide_075 (human); experiment: peptide array
T12 peptide: IETHKLTFRENAKAK
Experimental: as §1, §2

[13] = molecular target: T13, full-length human Tau (Tau441; 2N4R), recombinant (human, UniProt P10636 1-758); experiment: Octet binning on biotin-r-Tau; competitor 1A5
T13 construct: made in E. coli, His6-Smt3 tag removed; biotinylated through amines for Octet and phage work; also called r-Tau; recombinant Tau
Experimental: (§3) Epitope binning assays were performed using a FortéBio® Octet® RED384 instrument using FortéBio® Streptavidin biosensors. Biotinylated recombinant Tau was diluted to a concentration of 2 μg/mL in kinetic buffer (obtained from FortéBio®) and captured onto individual biosensors for 1 minute. A baseline was then established for 1 minute in kinetic buffer. The loaded biosensors were dipped into 10 μg/mL of the first chimeric IgG antibody until signal saturation, followed by dipping into 1 μg/mL of a second antibody. The binding for the second antibody was normalized to its total binding in the absence of the first antibody.

[14] = molecular target: T13, full-length human Tau (Tau441; 2N4R), …; experiment: Octet binning on biotin-r-Tau; competitor 1C7
Experimental: as §3

[15] = molecular target: T13, full-length human Tau (Tau441; 2N4R), …; experiment: Octet binning on biotin-r-Tau; competitor 1D10
Experimental: as §3

[16] = molecular target: T14, Tau 346-360 peptide, unphosphorylated (human, SMILES …); experiment: ELISA on biotinylated peptide
T14 peptide: Biotin-FKDRVQSKIGSLDNI-NH2
Experimental: (§4) Peptides corresponding to original binding sites on the microarray were synthesized and included all permutations of phospho-serine epitopes. Peptides were synthesized with a biotinylated N-terminus and C-terminal amide. Peptides were purified and confirmed by mass spectrometry. Peptides were then bound to streptavidin-coated plates in half serial dilutions from 250 ng/well of each peptide. Antibody binding was tested at 1 μg/mL in 5% BSA TBST, followed by washing and detection with goat anti-human HRP (as described above in the “Chimeric IgG ELISA” section).

[17] = molecular target: T15, Tau 251-270 peptide, unphosphorylated (human, N-terminal biotin; C-terminal amide); experiment: ELISA on biotinylated peptide
T15 peptide: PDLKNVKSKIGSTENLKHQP
Experimental: as §4

[18] = molecular target: T13, full-length human Tau (Tau441; 2N4R), …; experiment: SPR Biacore, IgG captured, r-Tau injected
Experimental: The affinity of chimeric IgG antibodies 1C7, 1A1, 1A5, 1D10, and 1G7 for recombinant Tau was determined by surface plasmon resonance using a Biacore™ T200 instrument. Biacore™ Series S CM5 sensor chips were immobilized with monoclonal mouse anti-human IgG (Fc) antibody (human antibody capture kit from GE Healthcare). 1 μg/mL of antibody was captured for 1 minute on each flow cell and serial 3-fold dilutions of recombinant Tau were injected at a flow rate of […]. Each sample was analyzed with a 3-minute association and a 10-minute dissociation. After each injection the chip was regenerated using 3M MgCl₂. Binding response was corrected by subtracting the RU from a flow cell capturing an irrelevant IgG at similar density. A 1:1 Languir model of simultaneous fitting of kₒₙ and koff was used for kinetics analysis.

T13 sequence (P10636 other isoform, or with tags, fused parts or gaps limits assumed): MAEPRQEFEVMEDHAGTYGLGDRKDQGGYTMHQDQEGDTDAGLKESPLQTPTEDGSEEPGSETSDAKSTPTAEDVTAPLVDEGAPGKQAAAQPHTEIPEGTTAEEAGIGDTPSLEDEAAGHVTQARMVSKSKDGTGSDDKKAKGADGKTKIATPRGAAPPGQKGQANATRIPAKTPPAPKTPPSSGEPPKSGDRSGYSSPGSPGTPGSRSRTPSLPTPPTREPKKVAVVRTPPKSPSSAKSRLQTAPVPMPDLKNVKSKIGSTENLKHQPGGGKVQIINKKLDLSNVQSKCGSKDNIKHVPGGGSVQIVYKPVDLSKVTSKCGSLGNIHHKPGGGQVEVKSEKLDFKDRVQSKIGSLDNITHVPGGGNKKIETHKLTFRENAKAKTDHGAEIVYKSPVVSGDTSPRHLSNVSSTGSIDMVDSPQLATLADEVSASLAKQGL

Binder	binding result [1]	binding result [2]	binding result [3]	binding result [4]	binding result [5]	binding result [6]	binding result [7]	binding result [8]	binding result [9]	binding result [10]	binding result [11]	binding result [12]	normalized binding of second antibody [13]	normalized binding of second antibody [14]	normalized binding of second antibody [15]	binding result [16]	binding result [17]	Kd [18] [nM]
B1	no binding (tested: 30 ug/mL)	no binding (tested: 30 ug/mL)	no binding (tested: 30 ug/mL)	no binding (tested: 30 ug/mL)	no binding (tested: 30 ug/mL)	no binding (tested: 30 ug/mL)	no binding (tested: 30 ug/mL)	no binding (tested: 30 ug/mL)	no binding (tested: 30 ug/mL)	no binding (tested: 30 ug/mL)	no binding (tested: 30 ug/mL)	no binding (tested: 30 ug/mL)	–	–	–	–	–	–
B2	no binding (tested: 5 ug/mL)	no binding (tested: 5 ug/mL)	no binding (tested: 5 ug/mL)	no binding (tested: 5 ug/mL)	no binding (tested: 5 ug/mL)	no binding (tested: 5 ug/mL)	no binding (tested: 5 ug/mL)	no binding (tested: 5 ug/mL)	no binding (tested: 5 ug/mL)	no binding (tested: 5 ug/mL)	no binding (tested: 5 ug/mL)	no binding (tested: 5 ug/mL)	-0.13	0.7	-0.35	binds	binds	0.2
B3	no binding (tested: 5 ug/mL)	no binding (tested: 5 ug/mL)	no binding (tested: 5 ug/mL)	no binding (tested: 5 ug/mL)	no binding (tested: 5 ug/mL)	no binding (tested: 5 ug/mL)	no binding (tested: 5 ug/mL)	no binding (tested: 5 ug/mL)	no binding (tested: 5 ug/mL)	no binding (tested: 5 ug/mL)	no binding (tested: 5 ug/mL)	no binding (tested: 5 ug/mL)	–	–	–	binds	binds	0.02
B4	no binding (tested: 5 ug/mL)	no binding (tested: 5 ug/mL)	no binding (tested: 5 ug/mL)	no binding (tested: 5 ug/mL)	no binding (tested: 5 ug/mL)	no binding (tested: 5 ug/mL)	no binding (tested: 5 ug/mL)	no binding (tested: 5 ug/mL)	no binding (tested: 5 ug/mL)	no binding (tested: 5 ug/mL)	no binding (tested: 5 ug/mL)	no binding (tested: 5 ug/mL)	-0.04	0.85	-0.12	binds	binds	0.1
B5	no binding (tested: 5 ug/mL)	no binding (tested: 5 ug/mL)	no binding (tested: 5 ug/mL)	no binding (tested: 5 ug/mL)	no binding (tested: 5 ug/mL)	no binding (tested: 5 ug/mL)	no binding (tested: 5 ug/mL)	no binding (tested: 5 ug/mL)	no binding (tested: 5 ug/mL)	no binding (tested: 5 ug/mL)	no binding (tested: 5 ug/mL)	no binding (tested: 5 ug/mL)	-0.07	0.88	-0.05	binds	binds	0.2
